Data reported in patent US20190361013A1 (SCUOLA NORMALE SUPERIORE, published 2019).

T1: LexA-Integrase-p300wt-HA (Integrase constitutively acetylated in cis by the fused p300 wt HAT; positions not stated)
T1 construct: Tethered catalysis bait expressed in L40 yeast from pMICBD1; also called IN-HATwt-HA; screening bait
T1 chain: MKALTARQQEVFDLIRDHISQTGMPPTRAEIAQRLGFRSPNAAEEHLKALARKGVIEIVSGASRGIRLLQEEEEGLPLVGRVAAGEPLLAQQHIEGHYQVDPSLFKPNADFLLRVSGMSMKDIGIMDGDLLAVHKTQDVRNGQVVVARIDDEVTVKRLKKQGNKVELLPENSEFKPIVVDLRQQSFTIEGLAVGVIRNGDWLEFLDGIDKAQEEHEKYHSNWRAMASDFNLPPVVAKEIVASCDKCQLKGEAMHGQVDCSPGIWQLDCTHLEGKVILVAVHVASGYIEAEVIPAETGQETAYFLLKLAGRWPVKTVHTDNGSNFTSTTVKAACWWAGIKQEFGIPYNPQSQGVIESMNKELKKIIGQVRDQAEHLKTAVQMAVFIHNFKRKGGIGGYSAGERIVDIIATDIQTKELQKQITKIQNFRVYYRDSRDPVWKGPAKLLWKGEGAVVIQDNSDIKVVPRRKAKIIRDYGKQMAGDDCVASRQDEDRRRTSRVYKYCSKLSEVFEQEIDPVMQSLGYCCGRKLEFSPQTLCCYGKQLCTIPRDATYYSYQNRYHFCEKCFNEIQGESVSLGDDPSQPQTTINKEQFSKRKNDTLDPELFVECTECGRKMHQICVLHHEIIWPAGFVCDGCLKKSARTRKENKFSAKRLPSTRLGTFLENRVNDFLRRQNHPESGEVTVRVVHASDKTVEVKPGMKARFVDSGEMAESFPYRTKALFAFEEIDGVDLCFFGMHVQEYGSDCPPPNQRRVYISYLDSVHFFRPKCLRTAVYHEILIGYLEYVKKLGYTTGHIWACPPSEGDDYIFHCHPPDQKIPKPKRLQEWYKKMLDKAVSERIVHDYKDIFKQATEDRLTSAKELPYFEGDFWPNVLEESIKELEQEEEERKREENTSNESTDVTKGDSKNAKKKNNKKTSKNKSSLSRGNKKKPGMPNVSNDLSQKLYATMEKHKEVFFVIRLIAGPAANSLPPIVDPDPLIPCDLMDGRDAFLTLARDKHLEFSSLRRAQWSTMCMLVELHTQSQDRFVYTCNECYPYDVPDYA

T2: LexA-IN
T2 construct: Non-acetylated Integrase bait; also called LexA-Integrase; IN-stop (non-acetylated)
T2 chain: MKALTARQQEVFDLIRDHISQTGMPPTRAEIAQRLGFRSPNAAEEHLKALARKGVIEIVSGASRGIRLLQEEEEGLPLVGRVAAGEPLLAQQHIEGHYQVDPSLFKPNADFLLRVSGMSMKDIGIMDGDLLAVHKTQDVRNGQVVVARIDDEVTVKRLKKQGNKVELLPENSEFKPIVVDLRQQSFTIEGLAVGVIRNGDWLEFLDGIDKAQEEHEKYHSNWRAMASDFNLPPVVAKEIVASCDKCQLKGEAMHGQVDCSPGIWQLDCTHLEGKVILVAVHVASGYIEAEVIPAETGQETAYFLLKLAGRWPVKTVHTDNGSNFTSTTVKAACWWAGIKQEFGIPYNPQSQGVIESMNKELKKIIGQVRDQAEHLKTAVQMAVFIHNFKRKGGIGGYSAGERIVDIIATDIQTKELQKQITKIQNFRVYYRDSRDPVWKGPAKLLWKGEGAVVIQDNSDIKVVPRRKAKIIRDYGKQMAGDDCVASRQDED

B1: ScFv-58F (scFv, not shown: large carriers)
scFv: DILMTQSPAIMSASPGEKVTMTCRASSSVSSSYLHWYQQKSGASPKLWIYSTSNLASGVPARFSGSGSGTSYSLTISSVEAEDAATYYCQQYSGYPWTSGGGTKLEIKRSGGSTSGSGKPGSGEGSSSTEVKVEESGGGLVQPGGSMKLSCVASGFTFSNYWMNWVRQSPEKGLEWVAEIRLKSNNYATHYAESVKGRFTISRDDSESSVYLQMNNLRAEDTGIYYCTRRNGPSSRAMDYWGQGTTVTVSS
notes: Yeast two-hybrid prey from mouse naive SPLINT ScFv library; also called ScFv-58 intrabody
B2: VH-12A (VHH, not shown: large carriers)
VHH: QVQLQQSGAELVKPGASVKLSCTASGFNIKDTYMHWVKQRPEQGLEWIGRIDPANGNTKYDPKFQGKATITADTSSNTAYLQLSSLTSEDTAVYYCASLLWWGQGTLVTVSA
notes: Single mouse VH domain split from ScFv-12A, as yeast two-hybrid prey; also called VH-12X

Legend:
Experiment in all cases: yeast two-hybrid (IACT), VP16 prey vs LexA bait, secondary screening
[1] = molecular target: T3, LexA-HistoneH3-Gcn5mut-HA
T3 construct: Control bait; H3 not acetylated; also called LexA-H3-Gcn5mut-HA

LexA-Gcn5wt-HA = molecular target: T4, LexA-Gcn5wt-HA
T4 construct: Control bait without H3

LexA-Gcn5mut-HA = molecular target: T5, LexA-Gcn5mut-HA
T5 construct: Control bait without H3

LexA-Integrase-p300wt-HA = molecular target: T1, LexA-Integrase-p300wt-HA
LexA-IN = molecular target: T2, LexA-IN

Binder	binding result [1]	binding result (LexA-Gcn5wt-HA)	binding result (LexA-Gcn5mut-HA)	binding result (LexA-Integrase-p300wt-HA)	binding result (LexA-IN)
B1	no binding	no binding	no binding		
B2				binds	binds
